Here are results for one molecule from patent publication US20210087294A1 (University of Pennsylvania, published 2021).

In assay [1] the target is T1, murine fibroblast activation protein (FAP) (murine, UniProt P97321 1-761).
T1 construct: whole, on cells; also called mouse FAP; murine FAP
T1 sequence (looked up): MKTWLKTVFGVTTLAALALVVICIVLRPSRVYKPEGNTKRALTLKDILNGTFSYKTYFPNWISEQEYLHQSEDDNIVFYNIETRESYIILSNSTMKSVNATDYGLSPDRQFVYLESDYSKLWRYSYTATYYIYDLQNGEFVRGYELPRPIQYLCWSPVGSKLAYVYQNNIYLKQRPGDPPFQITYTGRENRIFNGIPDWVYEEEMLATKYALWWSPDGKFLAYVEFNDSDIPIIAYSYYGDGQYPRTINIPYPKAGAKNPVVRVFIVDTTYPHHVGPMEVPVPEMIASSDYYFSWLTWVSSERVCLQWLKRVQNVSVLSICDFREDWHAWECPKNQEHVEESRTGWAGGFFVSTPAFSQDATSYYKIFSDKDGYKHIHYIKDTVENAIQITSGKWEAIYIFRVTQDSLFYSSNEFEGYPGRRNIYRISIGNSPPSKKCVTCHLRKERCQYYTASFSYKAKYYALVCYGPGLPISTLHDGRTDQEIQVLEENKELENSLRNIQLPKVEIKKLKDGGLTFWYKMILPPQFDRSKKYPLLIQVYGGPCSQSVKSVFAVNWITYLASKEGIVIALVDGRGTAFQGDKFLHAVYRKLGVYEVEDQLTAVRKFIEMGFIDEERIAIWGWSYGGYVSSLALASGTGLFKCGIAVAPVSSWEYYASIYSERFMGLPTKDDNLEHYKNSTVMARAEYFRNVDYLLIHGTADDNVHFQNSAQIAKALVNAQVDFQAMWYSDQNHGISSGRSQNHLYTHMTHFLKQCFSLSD
As to the kind of experiment: flow cytometry on BALB/c 3T3 cells expressing a murine FAP transgene. An excerpt:
(§1) On day 241, 2017 spleens were harvested, a single cell suspension prepared, and splenocytes fused with sp2/0 cells by the UPENN Hybridoma Core Facility. Hyridomas supernatants were initially screened by FACS on MC KOSA parental (FAP null) vs. canine FAP-transgene expressing MC KOSA.K9FAP using hybridoma supernatants as the primary antibodies and AF488 goat anti-mouseIgG as a secondary. Clone 4G5 identified as reactive to transduced cells but not parental cells and screened on additional cells to confirm reactivity with FAP expressing but not FAP-negative cells: Human primary fibroblasts, BALB/c 3T3 expressing murine or human FAP transgenes, canine primary fibroblasts, SK KOSA (FAP expressing), and BALB/c 3T3 (FAP negative) cells. 4G5 was then determined to be an IgG1k isotype antibody using (Thermo Fisher Rapid ELISA Mouse mAb Isotyping Kit #37503)
(§2) BALB/c 3T3 fibroblast cells transduced to express full-length canine FAP were then used to immunize 14 week old BALB/c FAP^{-/-} mice. All injections were given intraperitoneally and consisted of 1×10⁷ cells in 0.5 ml sterile PBS. The initial immunization was followed by six booster immunizations at regular intervals over the next eight months. At the conclusion of the study, spleens were harvested, and the resulting single-cell suspensions were used to generate hybridomas via fusion with sp2/0 cells. […]
A general note: Flow cytometry measures light scatter and fluorescence of single cells or particles in a stream.

Assay [2] concerns the target T2, human fibroblast activation protein (FAP) (human, UniProt Q12884 1-760).
T2 construct: whole, on cells; also called human FAP; huFAP
T2 sequence (looked up): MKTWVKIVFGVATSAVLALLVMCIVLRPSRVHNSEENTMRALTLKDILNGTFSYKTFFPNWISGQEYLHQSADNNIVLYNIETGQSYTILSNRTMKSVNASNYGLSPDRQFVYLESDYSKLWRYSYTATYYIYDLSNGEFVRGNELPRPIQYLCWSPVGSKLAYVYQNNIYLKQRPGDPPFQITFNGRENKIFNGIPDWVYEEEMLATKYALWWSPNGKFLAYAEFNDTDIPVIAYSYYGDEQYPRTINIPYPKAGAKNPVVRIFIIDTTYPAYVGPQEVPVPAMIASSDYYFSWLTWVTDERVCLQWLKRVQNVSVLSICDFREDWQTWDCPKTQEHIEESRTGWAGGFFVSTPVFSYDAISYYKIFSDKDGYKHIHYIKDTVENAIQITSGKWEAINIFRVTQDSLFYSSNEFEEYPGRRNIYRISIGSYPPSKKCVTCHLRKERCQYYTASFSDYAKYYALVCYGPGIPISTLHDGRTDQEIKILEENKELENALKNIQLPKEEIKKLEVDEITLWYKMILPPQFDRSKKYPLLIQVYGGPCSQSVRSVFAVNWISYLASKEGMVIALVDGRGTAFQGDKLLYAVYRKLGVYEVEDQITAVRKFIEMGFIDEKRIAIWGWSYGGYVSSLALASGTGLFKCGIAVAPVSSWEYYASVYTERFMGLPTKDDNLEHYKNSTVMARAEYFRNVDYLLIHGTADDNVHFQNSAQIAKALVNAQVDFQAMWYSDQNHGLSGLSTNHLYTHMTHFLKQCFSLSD
As to the kind of experiment: flow cytometry on human primary fibroblasts and on BALB/c 3T3 cells expressing a human FAP transgene.
Excerpt: as §1, §2

B1: 4G5 anti-canine FAP antibody (antibody, V domains shown)
VH: QVQLQQPGAELVKPGASVKLSCKASGYTITSYSLHWVKQRPGQGLEWIGEINPANGDHNFSEKFEIKATLTVDSSSNTAFMQLSRLTSEDSAVYYCTRLDDSRFHWYFDVWGAGTTVTVSS
VL: QIVLTQSPALMSASPGEKVTMTCTASSSVSYMYWYQQKPRSSPKPWIFLTSNLASGVPARFSGRGSGTSFSLTISSMEAEDAATYYCQQWSGYPPITFGSGTKLEIK
notes: Mouse hybridoma monoclonal antibody, tested as hybridoma supernatant or immunoglobulin; also called clone 4G5; 4G5 immunoglobulin
Regarding B1, the binding result in assay [1] and in assay [2] was “binds” throughout.
